Measured values as given in paper PMC11224109, “Synthesis and preclinical evaluation of novel ^18F-vancomycin-based tracers for the detection of bacterial infections using positron emission tomography” (European Journal of Nuclear Medicine and Molecular Imaging, 2024).

Assays:
[1] = Distribution coefficient LogD7.4, shake-flask n-octanol/PBS; format: physicochemical; details: shake-flask n-octanol/PBS pH 7.4, 500 µL each, 10 µL tracer in saline, vortexed 30 s, shaken 15 min, gamma counter, mean ± SD
Protocol: The tracer distribution coefficient in n-octanol/PBS pH 7.4 (LogD7.4) was determined using a shake-flask methodology. To an Eppendorf tube containing 500 µL n-octanol and 500 µL PBS, 10 µL tracer solution in saline was added. The vial was vortexed for 30 s and placed on an Eppendorf shaker for 15 min. After incubation, layers were separated by centrifugation (1 min at 10.000 rpm) and a fraction of the n-octanol layer was pipetted off. To minimize contamination of the bottom layer with the n-octanol layer, the bottom PBS layer was collected by puncturing the bottom of the Eppendorf tube with a 22G needle and aspirating a fraction of the PBS layer. Collected fractions were weighted to correct for collected volume and subsequently measured on a calibrated gamma counter and corrected for decay. LogD7.4 was calculated as [drawing 1] .

[2] = Biodistribution in vivo and PET in healthy mice; details: in vivo; for tissue uptake at 0.5 h / tissue uptake at 1 h: male, C57BL/6, mouse, 2 MBq, total radioactivity, Biodistribution, healthy male C57BL/6 mice, penile vein injection, gamma counter, mean of n = 3; for tissue uptake at 0.5 h: 30 min; for tissue uptake at 1 h: 60 min
Protocol: All murine experiments were approved by the Animal Care and Use Committee of the University of Groningen under license protocol number 2114768-01-001. In vivo biodistribution was performed in male C57BL/6 mice (age 8 weeks, 25 g). Per tracer, the animals were divided in three groups based on the tracer distribution times (30 min, 60 min, and 90 min). […] Each experimental arm (i.e. time point) consisted of three animals. […] Tracer was administered at t = 0 via penile vein injection (2.0 ± 0.9 MBq in 100 µL 0.9% saline solution, Supplemental Table 2). After tracer administration, the animals were transferred to a Siemens Focus 220 microPET small animal scanner (Siemens, Munich, Germany) and scanned for the designated time, followed by a transmission scan of 10 min for attenuation correction. PET data were normalized and corrected for decay, after which the PET data were reconstructed using OSEM2D-Z1-SC-256. The PET data frames used for reconstruction were: 6 × 10 s, 4 × 30 s, 2 × 60 s, 120 s, 180 s, 4 × 300 s, 3 × 600 s, 1200 s or until the designated scan time was reached, taking into account a 10-min transmission scan following the emission scan. Next, animals were terminated, and organs harvested to assay biodistribution in a calibrated gamma counter (Wizard2, Perkin Elmer, Waltham, United States).

[3] = Summary of tracer stability in vitro and in vivo
Protocol: Stability of the tracers was determined in PBS and human plasma. In a typical experiment, 1 MBq of radioactivity (10–20 µL) was added to 250 µL of PBS or human plasma. Samples were heated to 37 °C on a shaker and sampled at fixed intervals. For samples containing human plasma, protein was precipitated using two volumes of cold MeCN. Precipitated samples were briefly centrifuged to pellet the insoluble fraction and supernatant was used for stability assessment. Supernatant (1 µL) was loaded on a TLC plate and imaged using BAS-IP MS 2025 E plates (Fujifilm, Tokyo, Japan) on an Amersham Typhoon Biomolecular Imager (GE Healthcare Bio-Sciences Corp, Chicago, United States) equipped with a phosphor imaging stage. [^18F]BODIPY-FL-vancomycin has an Rf of 0.68 (petroleum ether/MeOH 3:1), [^18F]FB-vancomycin has an Rf of 0.66 (2 M NaOAc/MeOH 5:1). For [^18F]PQ-VE1-vancomycin, conditions described in [44] were used.

## CC(C)C[C@H](C(=O)N[C@H]1C(=O)N[C@@H](CC(N)=O)C(=O)N[C@H]2C(=O)N[C@H]3C(=O)N[C@H](C(=O)N[C@H](C(=O)O)c4cc(O)cc(O)c4-c4cc3ccc4O)[C@H](O)c3ccc(c(Cl)c3)Oc3cc2cc(c3O[C@@H]2O[C@H](CO)[C@@H](O)[C@H](O)[C@H]2O[C@H]2C[C@](C)(N)[C@H](O)[C@H](C)O2)Oc2ccc(cc2Cl)[C@H]1O)N(C)C(=O)c1ccc(F)cc1 [[^18F]FB-vancomycin]
[1]
  LogD7.4: -0.96 ± 0.03 (n = 12)
[2]; iv, Bladder
  tissue uptake at 0.5 h: 21.8 %ID/g
  tissue uptake at 1 h: 18.5 %ID/g
[2]; iv, Bone
  tissue uptake at 0.5 h: 0.06 %ID/g
  tissue uptake at 1 h: 0.04 %ID/g
[2]; iv, Brain
  tissue uptake at 0.5 h: 0.05 %ID/g
  tissue uptake at 1 h: 0.05 %ID/g
[2]; iv, Fat
  tissue uptake at 0.5 h: 0.54 %ID/g
  tissue uptake at 1 h: 0.26 %ID/g
[2]; iv, Heart
  tissue uptake at 0.5 h: 0.11 %ID/g
  tissue uptake at 1 h: 0.22 %ID/g
[2]; iv, Kidneys
  tissue uptake at 0.5 h: 1.01 %ID/g
  tissue uptake at 1 h: 0.45 %ID/g
[2]; iv, Large intestine
  tissue uptake at 0.5 h: 0.25 %ID/g
  tissue uptake at 1 h: 0.37 %ID/g
[2]; iv, Liver
  tissue uptake at 0.5 h: 0.15 %ID/g
  tissue uptake at 1 h: 0.1 %ID/g
[2]; iv, Lungs
  tissue uptake at 0.5 h: 0.2 %ID/g
  tissue uptake at 1 h: 0.14 %ID/g
[2]; iv, Muscle
  tissue uptake at 0.5 h: 0.14 %ID/g
  tissue uptake at 1 h: 0.12 %ID/g
[2]; iv, Plasma
  tissue uptake at 0.5 h: 0.29 %ID/g
  tissue uptake at 1 h: 0.15 %ID/g
[2]; iv, Small intestine
  tissue uptake at 0.5 h: 0.3 %ID/g
  tissue uptake at 1 h: 0.19 %ID/g
[2]; iv, Spleen
  tissue uptake at 0.5 h: 0.14 %ID/g
  tissue uptake at 1 h: 0.09 %ID/g
[2]; iv, Stomach
  tissue uptake at 0.5 h: 0.1 %ID/g
  tissue uptake at 1 h: 0.21 %ID/g
[2]; iv, Whole blood
  tissue uptake at 0.5 h: 0.2 %ID/g
  tissue uptake at 1 h: 0.1 %ID/g
[2]; mouse
  Accumulation: No accumulation in tissues, only in urine
  Clearance: Rapid renal clearance
[2]; mouse, iv
  In vivo stability: poor in vivo stability
[3]
  Stability: Rapidly degraded in vitro and in vivo.
